Laboratory results from the supplement of paper PMC5998384.

How the values were obtained:
HeLa Kyoto [1] = assay: solubility change mitosis vs G1/S (difference of NP-40 vs SDS log2 ratios) (log2 ratio difference); higher = more soluble in mitosis
HeLa Kyoto [2] = assay: thermal stability score vs G1/S (z-score of summed log2 fold changes over temperatures); higher = more thermally stable than in G1/S
HeLa Kyoto [3] = assay: solubility in G1/S (NP-40 vs SDS abundance) (log2 ratio); higher = more soluble; settings: cell cycle stage: G1/S
HeLa Kyoto [4] = assay: melting temperature (median over replicates), in situ; higher = more thermally stable
[5] = cell cycle stage: early G1 (4.5 h after nocodazole release)
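Throughout, for melting temperature (median over replicates), in situ: HeLa Kyoto cells synchronized by double thymidine or nocodazole block, proteins quantified by TMT10plex mass spectrometry, three independent biological replicates.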
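Throughout, for solubility change mitosis vs G1/S (difference of NP-40 vs SDS log2 ratios): synchronized HeLa Kyoto cells (double thymidine block for G1/S, nocodazole release for mitosis), protein amounts in NP-40 versus SDS lysates quantified by mass spectrometry, three biological replicates.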
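Throughout, for solubility in G1/S (NP-40 vs SDS abundance): HeLa Kyoto cells arrested at G1/S by double thymidine block, proteins quantified by TMT10plex mass spectrometry in mild NP-40 versus SDS extracts, three biological replicates.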
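Throughout, for thermal stability score vs G1/S (z-score of summed log2 fold changes over temperatures): synchronized HeLa Kyoto cells, proteins quantified by TMT10plex mass spectrometry, three biological replicates, mitosis taken 0.5 h after nocodazole release, G1/S directly after double thymidine block.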

Sequence | solubility change mitosis (log2) (HeLa Kyoto [1]) | thermal stability score (HeLa Kyoto [2]; [5]) | thermal stability score (HeLa Kyoto [2]; cell cycle stage: mitosis) | solubility in G1/S (log2) (HeLa Kyoto [3]) | melting temperature (HeLa Kyoto [4]; cell cycle stage: G1/S) [°C] | melting temperature (HeLa Kyoto [4]; cell cycle stage: mitosis) [°C]
MATEIGSPPRFFHMPRFQHQAPRQLFYKRPDFAQQQAMQQLTFDGKRMRKAVNRKTIDYNPSVIKYLENRIWQRDQRDMRAIQPDAGYYNDLVPPIGMLNNPMNAVTTKFVRTSTNKVKCPVFVVRWTPEGRRLVTGASSGEFTLWNGLTFNFETILQAHDSPVRAMTWSHNDMWMLTADHGGYVKYWQSNMNNVKMFQAHKEAIREASFSPTDNKFATCSDDGTVRIWDFLRCHEERILRGHGADVKCVDWHPTKGLVVSGSKDSQQPIKFWDPKTGQSLATLHAHKNTVMEVKLNLNGNWLLTASRDHLCKLFDIRNLKEELQVFRGHKKEATAVAWHPVHEGLFASGGSDGSLLFWHVGVEKEVGGMEMAHEGMIWSLAWHPLGHILCSGSNDHTSKFWTRNRPGDKMRDRYNLNLLPGMSEDGVEYDDLEPNSLAVIPGMGIPEQLKLAMEQEQMGKDESNEIEMTIPGLDWGMEEVMQKDQKKVPQKKVPYAKPIPAQFQQAWMQNKVPIPAPNEVLNDRKEDIKLEEKKKTQAEIEQEMATLQYTNPQLLEQLKIERLAQKQVEQIQPPPSSGTPLLGPQPFPGQGPMSQIPQGFQQPHPSQQMPMNMAQMGPPGPQGQFRPPGPQGQMGPQGPPLHQGGGGPQGFMGPQGPQGPPQGLPRPQDMHGPQGMQRHPGPHGPLGPQGPPGPQGSSGPQGHMGPQGPPGPQGHIGPQGPPGPQGHLGPQGPPGTQGMQGPPGPRGMQGPPHPHGIQGGPGSQGIQGPVSQGPLMGLNPRGMQGPPGPRENQGPAPQGMIMGHPPQEMRGPHPPGGLLGHGPQEMRGPQEIRGMQGPPPQGSMLGPPQELRGPPGSQSQQGPPQGSLGPPPQGGMQGPPGPQGQQNPARGPHPSQGPIPFQQQKTPLLGDGPRAPFNQEGQSTGPPPLIPGLGQQGAQGRIPPLNPGQGPGPNKGDSRGPPNHHMGPMSERRHEQSGGPEHGPERGPFRGGQDCRGPPDRRGPHPDFPDDFSRPDDFHPDKRFGHRLREFEGRGGPLPQEEKWRRGGPGPPFPPDHREFSEGDGRGAARGPPGAWEGRRPGDERFPRDPEDPRFRGRREESFRRGAPPRHEGRAPPRGRDGFPGPEDFGPEENFDASEEAARGRDLRGRGRGTPRGGRKGLLPTPDEFPRFEGGRKPDSWDGNREPGPGHEHFRDTPRPDHPPHDGHSPASRERSSSLQGMDMASLPPRKRPWHDGPGTSEHREMEAPGGPSEDRGGKGRGGPGPAQRVPKSGRSSSLDGEHHDGYHRDEPFGGPPGSGTPSRGGRSGSNWGRGSNMNSGPPRRGASRGGGRGR [WDR33] | 0.257 | 0.933 | 1.06 | -0.421 | 49.3 | 49.8
MATELEYESVLCVKPDVSVYRIPPRASNRGYRASDWKLDQPDWTGRLRITSKGKTAYIKLEDKVSGELFAQAPVEQYPGIAVETVTDSSRYFVIRIQDGTGRSAFIGIGFTDRGDAFDFNVSLQDHFKWVKQESEISKESQEMDARPKLDLGFKEGQTIKLCIGNITNKKGGASKPRTARGGGLSLLPPPPGGKVTIPPPSSSVAISNHVTPPPIPKSNHGGSDADILLDLDSPAPVTTPAPTPVSVSNDLWGDFSTASSSVPNQAPQPSNWVQF [NECAP1] | -0.274 | 0.202 | 0.108 | 0.521 | 51.5 | 52.4
MATERSRSAMDSPVPASMFAPEPSSPGAARAAAAAARLHGGFDSDCSEDGEALNGEPELDLTSKLVLVSPTSEQYDSLLRQMWERMDEGCGETIYVIGQGSDGTEYGLSEADMEASYATVKSMAEQIEADVILLRERQEAGGRVRDYLVRKRVGDNDFLEVRVAVVGNVDAGKSTLLGVLTHGELDNGRGFARQKLFRHKHEIESGRTSSVGNDILGFDSEGNVVNKPDSHGGSLEWTKICEKSTKVITFIDLAGHEKYLKTTVFGMTGHLPDFCMLMVGSNAGIVGMTKEHLGLALALNVPVFVVVTKIDMCPANILQETLKLLQRLLKSPGCRKIPVLVQSKDDVIVTASNFSSERMCPIFQISNVTGENLDLLKMFLNLLSPRTSYREEEPAEFQIDDTYSVPGVGTVVSGTTLRGLIKLNDTLLLGPDPLGNFLSIAVKSIHRKRMPVKEVRGGQTASFALKKIKRSSIRKGMVMVSPRLNPQASWEFEAEILVLHHPTTISPRYQAMVHCGSIRQTATILSMDKDCLRTGDKATVHFRFIKTPEYLHIDQRLVFREGRTKAVGTITKLLQTTNNSPMNSKPQQIKMQSTKKGPLTKRDEGGPSGGPAVGAPPPGDEASSVGAGQPAASSNLQPQPKPSSGGRRRGGQRHKVKSQGACVTPASGC [GTPBP1] | -0.0833 | 1.01 | 0.553 | 0.0683 | 51.1 | 50.7
MATFISVQLKKTSEVDLAKPLVKFIQQTYPSGGEEQAQYCRAAEELSKLRRAAVGRPLDKHEGALETLLRYYDQICSIEPKFPFSENQICLTFTWKDAFDKGSLFGGSVKLALASLGYEKSCVLFNCAALASQIAAEQNLDNDEGLKIAAKHYQFASGAFLHIKETVLSALSREPTVDISPDTVGTLSLIMLAQAQEVFFLKATRDKMKDAIIAKLANQAADYFGDAFKQCQYKDTLPKEVFPVLAAKHCIMQANAEYHQSILAKQQKKFGEEIARLQHAAELIKTVASRYDEYVNVKDFSDKINRALAAAKKDNDFIYHDRVPDLKDLDPIGKATLVKSTPVNVPISQKFTDLFEKMVPVSVQQSLAAYNQRKADLVNRSIAQMREATTLANGVLASLNLPAAIEDVSGDTVPQSILTKSRSVIEQGGIQTVDQLIKELPELLQRNREILDESLRLLDEEEATDNDLRAKFKERWQRTPSNELYKPLRAEGTNFRTVLDKAVQADGQVKECYQSHRDTIVLLCKPEPELNAAIPSANPAKTMQGSEVVNVLKSLLSNLDEVKKEREGLENDLKSVNFDMTSKFLTALAQDGVINEEALSVTELDRVYGGLTTKVQESLKKQEGLLKNIQVSHQEFSKMKQSNNEANLREEVLKNLATAYDNFVELVANLKEGTKFYNELTEILVRFQNKCSDIVFARKTERDELLKDLQQSIAREPSAPSIPTPAYQSSPAGGHAPTPPTPAPRTMPPTKPQPPARPPPPVLPANRAPSATAPSPVGAGTAAPAPSQTPGSAPPPQAQGPPYPTYPGYPGYCQMPMPMGYNPYAYGQYNMPYPPVYHQSPGQAPYPGPQQPSYPFPQPPQQSYYPQQ [PDCD6IP] | -0.0427 | -2.03 | -1.7 | 0.366 | 48.7 | 48.6
MATKARVMYDFAAEPGNNELTVNEGEIITITNPDVGGGWLEGRNIKGERGLVPTDYVEILPSDGKDQFSCGNSVADQAFLDSLSASTAQASSSAASNNHQVGSGNDPWSAWSASKSGNWESSEGWGAQPEGAGAQRNTNTPNNWDTAFGHPQAYQGPATGDDDDWDEDWDGPKSSSYFKDSESADAGGAQRGNSRASSSSMKIPLNKFPGFAKPGTEQYLLAKQLAKPKEKIPIIVGDYGPMWVYPTSTFDCVVADPRKGSKMYGLKSYIEYQLTPTNTNRSVNHRYKHFDWLYERLLVKFGSAIPIPSLPDKQVTGRFEEEFIKMRMERLQAWMTRMCRHPVISESEVFQQFLNFRDEKEWKTGKRKAERDELAGVMIFSTMEPEAPDLDLVEIEQKCEAVGKFTKAMDDGVKELLTVGQEHWKRCTGPLPKEYQKIGKALQSLATVFSSSGYQGETDLNDAITEAGKTYEEIASLVAEQPKKDLHFLMECNHEYKGFLGCFPDIIGTHKGAIEKVKESDKLVATSKITLQDKQNMVKRVSIMSYALQAEMNHFHSNRIYDYNSVIRLYLEQQVQFYETIAEKLRQALSRFPVM [SNX9] | -0.0298 | -0.198 | 0.732 | -0.0383 | 49.9 | 49.3
MATRVEEAARGRGGGAEEATEAGRGGRRRSPRQKFEIGTMEEAGICGLGVKADMLCNSQSNDILQHQGSNCGGTSNKHSLEEDEGSDFITENRNLVSPAYCTQESREEIPGGEARTDPPDGQQDSECNRNKEKTLGKEVLLLMQALNTLSTPEEKLAALCKKYADLLEESRSVQKQMKILQKKQAQIVKEKVHLQSEHSKAILARSKLESLCRELQRHNKTLKEENMQQAREEEERRKEATAHFQITLNEIQAQLEQHDIHNAKLRQENIELGEKLKKLIEQYALREEHIDKVFKHKELQQQLVDAKLQQTTQLIKEADEKHQREREFLLKEATESRHKYEQMKQQEVQLKQQLSLYMDKFEEFQTTMAKSNELFTTFRQEMEKMTKKIKKLEKETIIWRTKWENNNKALLQMAEEKTVRDKEYKALQIKLERLEKLCRALQTERNELNEKVEVLKEQVSIKAAIKAANRDLATPVMQPCTALDSHKELNTSSKRALGAHLEAEPKSQRSAVQKPPSTGSAPAIESVD [TXLNG] | 0.0514 | -0.882 | -2.17 | 0.584 | 52.5 | 52.5
MATSSMSKGCFVFKPNSKKRKISLPIEDYFNKGKNEPEDSKLRFETYQLIWQQMKSENERLQEELNKNLFDNLIEFLQKSHSGFQKNSRDLGGQIKLREIPTAALVLGVNVTDHDLTFGSLTEALQNNVTPYVVSLQAKDCPDMKHFLQKLISQLMDCCVDIKSKEEESVHVTQRKTHYSMDSLSSWYMTVTQKTDPKMLSKKRTTSSQWQSPPVVVILKDMESFATKVLQDFIIISSQHLHEFPLILIFGIATSPIIIHRLLPHAVSSLLCIELFQSLSCKEHLTTVLDKLLLTTQFPFKINEKVLQVLTNIFLYHDFSVQNFIKGLQLSLLEHFYSQPLSVLCCNLPEAKRRINFLSNNQCENIRRLPSFRRYVEKQASEKQVALLTNERYLKEETQLLLENLHVYHMNYFLVLRCLHKFTSSLPKYPLGRQIRELYCTCLEKNIWDSEEYASVLQLLRMLAKDELMTILEKCFKVFKSYCENHLGSTAKRIEEFLAQFQSLDETKEEEDASGSQPKGLQKTDLYHLQKSLLEMKELRRSKKQTKFEVLRENVVNFIDCLVREYLLPPETQPLHEVVYFSAAHALREHLNAAPRIALHTALNNPYYYLKNEALKSEEGCIPNIAPDICIAYKLHLECSRLINLVDWSEAFATVVTAAEKMDANSATSEEMNEIIHARFIRAVSELELLGFIKPTKQKTDHVARLTWGGC [ORC3] | -0.145 | 1.65 | 2.89 | -0.303 | 48 | 48.7
MAVARLAAVAAWVPCRSWGWAAVPFGPHRGLSVLLARIPQRAPRWLPACRQKTSLSFLNRPDLPNLAYKKLKGKSPGIIFIPGYLSYMNGTKALAIEEFCKSLGHACIRFDYSGVGSSDGNSEESTLGKWRKDVLSIIDDLADGPQILVGSSLGGWLMLHAAIARPEKVVALIGVATAADTLVTKFNQLPVELKKEVEMKGVWSMPSKYSEEGVYNVQYSFIKEAEHHCLLHSPIPVNCPIRLLHGMKDDIVPWHTSMQVADRVLSTDVDVILRKHSDHRMREKADIQLLVYTIDDLIDKLSTIVN [ABHD10] | -0.147 | 1.29 | -0.803 | 0.191 | 57.4 | 57.6
MAVFADLDLRAGSDLKALRGLVETAAHLGYSVVAINHIVDFKEKKQEIEKPVAVSELFTTLPIVQGKSRPIKILTRLTIIVSDPSHCNVLRATSSRARLYDVVAVFPKTEKLFHIACTHLDVDLVCITVTEKLPFYFKRPPINVAIDRGLAFELVYSPAIKDSTMRRYTISSALNLMQICKGKNVIISSAAERPLEIRGPYDVANLGLLFGLSESDAKAAVSTNCRAALLHGETRKTAFGIISTVKKPRPSEGDEDCLPASKKAKCEG [RPP30] | -0.0188 | -0.0475 | -1.92 | -0.0469 | 55.3 | 56.1
